This is an account of results in US20150203579A1 (Regeneron, published 2015).

Broadly, the IC50 is the concentration that gives 50% inhibition. By Kd is commonly meant the equilibrium constant for the complex coming apart. One may read the koff as the rate constant with which the complex falls apart. Broadly, the kon is the rate constant with which the complex forms. Usually EC50 stands for the concentration that produces a half-maximal response.

The target of assay [1] is T1, recombinant human PD-1 dimer expressed with a C-terminal mouse IgG2a Fc tag (human).
T1 construct: also called hPD-1-mFc
The assay is described as follows: competition ELISA: 1.5 nM hPD-1-mFc to coated hPD-L1-hFc. A general note: An ELISA detects its analyte on a solid surface through an enzyme-linked reagent.

In assay [2] the target is T2, recombinant human PD-L1 expressed with a C-terminal mouse IgG2a Fc tag (human).
T2 construct: also called hPD-L1-mFc; hPD-L1.mFc
Description: SPR Biacore 3000: 500 nM mAb alone (no hPD-1.hFc) over captured hPD-L1.mFc surface, control.

Assay [3] has as its target T3, full length human PD-1 on HEK293/hPD-1 cells (human, UniProt Q15116 25-288). The assay is described as follows: FACS, 100 nM mAb, HEK293/hPD-1 cells.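 Note: antibodies incubated with cells for 15-30 min on ice, bound antibody detected through a secondary F(ab′)2 by flow cytometry, with parental HEK293 cells tested in parallel.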 On the technique in general: In flow cytometry, cells or beads pass a laser one at a time.
Assay [4] deals with T4, monkey PD-1 with mFc (monkey).
T4 construct: also called monkey PD-1-mFc; monkey PD-1 dimer
T4 chain: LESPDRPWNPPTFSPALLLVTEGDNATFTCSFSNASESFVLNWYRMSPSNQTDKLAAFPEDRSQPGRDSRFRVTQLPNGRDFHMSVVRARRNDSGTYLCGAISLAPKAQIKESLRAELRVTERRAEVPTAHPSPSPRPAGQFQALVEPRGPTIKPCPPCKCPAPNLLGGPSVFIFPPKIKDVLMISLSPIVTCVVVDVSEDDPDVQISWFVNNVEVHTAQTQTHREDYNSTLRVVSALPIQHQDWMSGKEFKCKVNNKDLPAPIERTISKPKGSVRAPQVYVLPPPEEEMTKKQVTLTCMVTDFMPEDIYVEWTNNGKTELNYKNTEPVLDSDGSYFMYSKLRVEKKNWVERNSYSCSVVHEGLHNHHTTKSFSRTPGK
The assay is described as follows: SPR, captured mAb, 37 C.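 Note: Real-time Biacore surface plasmon resonance biosensor readout of PD-1 reagent binding to purified anti-PD-1 monoclonal antibodies.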 Background: In SPR one partner is held on a chip, and binding of the other changes the refractive index at the surface.

The target of assay [5] is T5, recombinant human PD-1 expressed with a C-terminal human IgG1 Fc tag (human).
T5 construct: also called hPD-1-hFc; hPD1-hFc
The assay is described as follows: SPR Biacore 3000: 100 nM hPD-1.hFc + 500 nM mAb to captured hPD-L1.mFc.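 Note: inhibition study with anti-PD-1 mAbs, SPR responses tracked in real time and read at the close of each step.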

Assay [6] concerns the target PD-1 chimera: extracellular domain of human PD-1 with trans-membrane and cytoplasmic domains of human CD300a, … (human, UniProt Q9UGN4 181-299, limits assumed). The assay is described as follows: cell-based or functional assay.
Assay [7] deals with T4, monkey PD-1 with mFc. Description: SPR, captured mAb, 25 C.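 Note: purified anti-PD-1 antibodies tested on Biacore 4000 or T200 instruments, rate constants obtained via 1:1 binding model fit, with KD as kd/ka and half-life as ln2/(60·kd).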
The target of assay [8] is T3, full length human PD-1 on HEK293/hPD-1 …. Description: FACS, 100 nM mAb.
Assay [9] has as its target T6, dimeric biotinylated human PD-1 protein with a C-terminal human Fc tag (human, biotinylated (sites not given)).
T6 construct: also called biot-hPD-1-hFc
Description: competition ELISA: 200 pM biot-hPD-1-hFc to coated hPD-L1-mFc.

Assay [10] concerns the target T3, full length human PD-1 on HEK293/hPD-1 …. Description: FACS dose response, HEK293/hPD-1 cells.
For assay [11], the target named is T1, recombinant human PD-1 dimer expressed …. The assay is described as follows: BLI Octet: 100 nM hPD-1-mFc + 500 nM mAb to captured hPD-L1-hFc.

B1: H4xH8999P (antibody, V domains shown)
VH: QLQLQESGPGLVQPSETLSLTCTVSGDSISSTAYHWDWIRQPPGKGLEWIGTITYNGNTYFNPSLKSRVTISVDTSKNQFSLKLLSMTAAETAVFYCARHLGYNSDFFPFDFWGQGTLVTVSS
VL: not shown
notes: human IgG4 Fc with 2 or more amino acid changes (US20100331527)
For B1, in assay [1], the “% blocking at 200 nM antibody” value turned out to be 88% and the IC50 was 1.3 nM. Moreover, the “500 nM of anti-PD-1 monoclonal antibody (RU)” value (“500 nM” below) in [2] was determined as 1 RU. This molecule registered an MFI in assay [3] of 28900 MFI. Further, in assay [4], the “100 nM Monkey PD-1-mFc Bound (RU)” value amounted to 83 RU, the Kd came to 0.7 nM and the t1/2 came out at 23 min. Moreover, in [5], the “% Blocking” value is 100% and the “binding of the mixture (RU)” value was 0 RU. Besides, the “Emax mean [%] @ 100 nM” value in [6] is 217%. Moreover, in [7], the “100 nM Monkey PD-1-mFc Bound (RU)” value stood at 126 RU, the Kd came to 0.21 nM and the t1/2 turned out to be 100 min.

B2: H4xH9135P2 (antibody, V domains shown)
VH: EVQLVESGGSVVRPGGSLRLSCVVSGFTFEDYGLSWVRQIPGKGLEWVSGISWTGGNTGYADSVKGRFTISRDNAKNSLYLQMNSLRAEDTALYHCTRDRQWLMQWYFDYWGQGTLVTVSS
VL: not shown
notes: as for B1
For the molecule B2, in assay [1], the “% blocking at 200 nM antibody” value is 97% and the IC50 stood at 1.1 nM. Besides, the “ratio of MFI HEK293/hPD-1 to HEK293 parental cells” value in assay [8] was 82.2. The “500 nM” value in [2] is -3 RU. This molecule registered an MFI in assay [3] of 9380 MFI. For the same molecule, in [4], the “100 nM Monkey PD-1-mFc Bound (RU)” value was 52 RU, the Kd was determined as 2.32 nM, the off-rate (koff) came out at 0.000794 s⁻¹ and the kon came out at 342000 M⁻¹ s⁻¹. The molecule further registered a t1/2 in [4] of 15 min. Besides, in [5], the “% Blocking” value amounted to 102% and the “binding of the mixture (RU)” value was -3 RU. Moreover, in [9], the “% blocking at 50 nM antibody” value worked out at 96% and the IC50 was determined as 0.15 nM. In addition, in assay [6], the “Concentration (M) of Antibody at 150% activation” value was 1.55e-09 M and the “Emax mean [%] @ 100 nM” value was 193%. In addition, in [7], the “100 nM Monkey PD-1-mFc Bound (RU)” value stood at 74 RU, the Kd was determined as 0.602 nM, the koff was 0.000143 s⁻¹ and the kon amounted to 238000 M⁻¹ s⁻¹. Besides, the t1/2 in [7] came out at 81 min. Further, in assay [10], it took 0.105 nM to reach a half-maximal effect (EC50) and the “Max Geom. Mean MFI @ 100 nM” value was determined as 32800 MFI.

B3: H4xH8992P (antibody, V domains shown)
VH: EVQLVESGGGLVQPGRSLRLSCVASGFALHDYAMHWVRQVPGKGLEWVSSISWNSGVIGYADSLKGRFTISRDNAKNSLYLQMNSLRAEDTALYYCAKGSGSYYVSWFDPWGQGTLVTVSS
VL: not shown
notes: as for B1
In the case of B3, in assay [1], the “% blocking at 200 nM antibody” value came to 93% and the IC50 turned out to be 1.3 nM. Besides, the “500 nM” value in assay [2] was 3 RU. Also, in [3], the MFI came to 17500 MFI. In assay [4], the “100 nM Monkey PD-1-mFc Bound (RU)” value is 86 RU; the affinity, expressed as Kd, was 4.38 nM; the t1/2 was 8 min. In assay [5], the “binding of the mixture (RU)” value came out at 2 RU. In addition, the “Emax mean [%] @ 100 nM” value in assay [6] was determined as 178%. Further, in [7], the “100 nM Monkey PD-1-mFc Bound (RU)” value turned out to be 122 RU, the Kd worked out at 1.24 nM and the t1/2 amounted to 46 min.

B4: H4xH9120P2 (antibody, V domains shown)
VH: QVQLVQSGAEVKRPGASVKVSCKASGYTFTSFYMYWVRQAPGQGLEWMGIINPSDGSTSNAQKFQGRVTMTRDTSTSTVYMELSSLRSEDTAVYYCARRVAGDIFDIWGQGTMVTVSS
VL: not shown
notes: as for B1
For the molecule B4, in assay [1], the “% blocking at 200 nM antibody” value was determined as 98% and the IC50 is 1 nM. Further, the “ratio of MFI HEK293/hPD-1 to HEK293 parental cells” value in assay [8] amounted to 91.9. In assay [2], the “500 nM” value stood at 1 RU. This molecule gave an MFI in assay [3] of 9980 MFI. In assay [4], the “100 nM Monkey PD-1-mFc Bound (RU)” value worked out at 46 RU, the Kd amounted to 6.06 nM, the koff came to 0.000502 s⁻¹ and the kon was determined as 82900 M⁻¹ s⁻¹. This molecule also had a t1/2 in [4] of 23 min. In addition, in assay [5], the “% Blocking” value was determined as 100% and the “binding of the mixture (RU)” value was 0 RU. In addition, in assay [9], the “% blocking at 50 nM antibody” value was 96% and the IC50 came out at 0.39 nM. In assay [6], the “Concentration (M) of Antibody at 150% activation” value was found to be 1.1e-08 M and the “Emax mean [%] @ 100 nM” value turned out to be 166%. For the same molecule, in assay [7], the “100 nM Monkey PD-1-mFc Bound (RU)” value is 52 RU, the Kd is 1.91 nM, the koff came to 0.000112 s⁻¹ and the kon stood at 58400 M⁻¹ s⁻¹. The molecule further showed a t1/2 in [7] of 104 min. Moreover, in assay [10], the EC50 was determined as 0.48 nM and the “Max Geom. Mean MFI @ 100 nM” value is 34100 MFI.

B5: H4xH9145P2 (antibody, V domains shown)
VH: QVQLVESGGGVVQPGRSLRLSCSASGFTFSAYAMHWVRQAPGKGLEWVAAISYGGSDKYYADSVKGRFTISRDNSKNTLYLQMNSLRTDDTAVYYCAKSAHWNFFFDYWGQGTLVTVSS
VL: not shown
notes: as for B1
Take B5: in [1], the “% blocking at 200 nM antibody” value was determined as 90% and the IC50 stood at 0.93 nM. Moreover, in [8], the “ratio of MFI HEK293/hPD-1 to HEK293 parental cells” value was determined as 51.2. Moreover, in [2], the “500 nM” value is -8 RU. In addition, the MFI in [3] stood at 11600 MFI. Further, in assay [4], the “100 nM Monkey PD-1-mFc Bound (RU)” value came out at 94 RU, the Kd worked out at 4.04 nM, the koff stood at 0.000609 s⁻¹ and the kon was 151000 M⁻¹ s⁻¹. In assay [4], this molecule returned a t1/2 of 19 min. For the same molecule, in assay [5], the “% Blocking” value is 106% and the “binding of the mixture (RU)” value was -6 RU. In assay [9], the “% blocking at 50 nM antibody” value worked out at 97% and the IC50 amounted to 0.35 nM. Also, in assay [6], the “Concentration (M) of Antibody at 150% activation” value worked out at 2.4e-09 M and the “Emax mean [%] @ 100 nM” value stood at 185%. Besides, in assay [7], the “100 nM Monkey PD-1-mFc Bound (RU)” value worked out at 84 RU, the Kd came out at 2.08 nM, the koff came to 0.00015 s⁻¹ and the kon was determined as 72400 M⁻¹ s⁻¹. In addition, in [7], the t1/2 is 77 min. Further, in assay [10], the EC50 was 0.232 nM and the “Max Geom. Mean MFI @ 100 nM” value was 30600 MFI.

B6: H2aM7794N (antibody, V domains shown)
VH: QLQLQESGPDLVKPSDTLSLTCTVSDDSISSTTYYWAWIRQPPGKGLEWIGSMSYNGNNYYNPSLKSRVAISAGTSQKQFSLKLTSVTAADTAVYHCARHLGYNGNWYPFDFWGQGILVTVSS
VL: not shown
notes: human variable regions, mouse IgG2a Fc; also called H2M7794N
With B6, in assay [11], the “% Blocking” value stood at 114% and the “binding of the mixture (nm)” value was -0.01 nm. Besides, in [1], the “% blocking at 200 nM antibody” value came to 95% and the IC50 was 1.1 nM. The “ratio of MFI HEK293/hPD-1 to HEK293 parental cells” value in [8] stood at 71. The molecule further yielded an MFI in [3] of 19100 MFI. In [9], the “% blocking at 50 nM antibody” value amounted to 99% and the IC50 worked out at 0.23 nM. Also, in assay [6], the “Concentration (M) of Antibody at 150% activation” value was determined as 4.09e-08 M and the “Emax mean [%] @ 100 nM” value came to 170%. In addition, in [10], the EC50 was 1.37 nM and the “Max Geom. Mean MFI @ 100 nM” value was found to be 16400 MFI.

B7: H4H9019P (antibody, V domains shown)
VH: EVQLVESGGGVVRPGGSLRLSCAASGFTFDDYGMSWVRQVPGKGLEWVSGISWNDGKTVYAESVKGRFIISRDNAKNSLYLEMNSLRAEDTALYYCARDWQYLIERYFDYWGQGTLVTVSS
VL: not shown
notes: fully human; H4H prefix (human IgG4 Fc)
Regarding B7, in [1], the “% blocking at 200 nM antibody” value came to 98% and the 50% inhibitory concentration (IC50) turned out to be 1.3 nM. For the same molecule, the “500 nM” value in assay [2] was -2 RU. Besides, in [3], the MFI worked out at 8610 MFI. Moreover, in assay [4], the “100 nM Monkey PD-1-mFc Bound (RU)” value was determined as 36 RU, the Kd stood at 3.17 nM and the t1/2 worked out at 45 min. The “binding of the mixture (RU)” value in [5] is -1 RU. In assay [6], the “Concentration (M) of Antibody at 150% activation” value is 1.79e-08 M and the “Emax mean [%] @ 100 nM” value stood at 180%. For the same molecule, in assay [7], the “100 nM Monkey PD-1-mFc Bound (RU)” value came to 31 RU, binding was put at a Kd of 1.97 nM and the t1/2 turned out to be 129 min. Also, in assay [10], the EC50 is 1.4 nM and the “Max Geom. Mean MFI @ 100 nM” value was 29200 MFI.
